The source of these data is US20180273587A1 (AILERON THERAPEUTICS, published 2018).

Positions of bridges follow the written chain, without caps; N, C: chain ends. Non-standard residues stand in square brackets, D forms with d. Gly(1-adamantyl) = N[C@H](C(=O)O)C12CC3CC(CC(C3)C1)C2; Phe(4-CF3) = N[C@@H](Cc1ccc(C(F)(F)F)cc1)C(=O)O; Phe(4-tBu) = CC(C)(C)c1ccc(C[C@H](N)C(=O)O)cc1; Bip = N[C@@H](Cc1ccc(-c2ccccc2)cc1)C(=O)O; Igl = N[C@H](C(=O)O)C1Cc2ccccc2C1; R8 = C=CCCCCCC[C@@](C)(N)C(=O)O; Cha = N[C@@H](CC1CCCCC1)C(=O)O; hAdm = homo-adamantyl glycine; S5 = C=CCCC[C@](C)(N)C(=O)O

Broadly, the Ki is the equilibrium dissociation constant of an inhibitor or competing ligand from its target.

Assay in all cases: Ki table, method not stated
The target of one experiment is T1, MCL-1 (UniProt Q07820 172-327, limits assumed).
T1 construct: also called Myeloid cell leukemia 1

In the next experiment the target is BCL-XL (UniProt Q07817 1-209).
A further experiment addresses BCL-2 (UniProt P10415 1-217, limits assumed).

Sequence of BCL-2 (P10415 1-217 limits assumed): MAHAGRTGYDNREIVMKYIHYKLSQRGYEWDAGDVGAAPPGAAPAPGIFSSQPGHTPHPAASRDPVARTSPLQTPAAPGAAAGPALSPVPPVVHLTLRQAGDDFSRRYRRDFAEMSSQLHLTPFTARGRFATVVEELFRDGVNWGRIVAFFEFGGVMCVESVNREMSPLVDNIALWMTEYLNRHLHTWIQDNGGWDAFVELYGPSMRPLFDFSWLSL
T1 sequence (Q07820 172-327 limits assumed): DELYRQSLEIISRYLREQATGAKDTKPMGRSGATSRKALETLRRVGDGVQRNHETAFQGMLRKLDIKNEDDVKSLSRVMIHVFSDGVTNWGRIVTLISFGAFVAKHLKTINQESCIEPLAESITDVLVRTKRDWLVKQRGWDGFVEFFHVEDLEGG
Sequence of BCL-XL (Q07817 1-209): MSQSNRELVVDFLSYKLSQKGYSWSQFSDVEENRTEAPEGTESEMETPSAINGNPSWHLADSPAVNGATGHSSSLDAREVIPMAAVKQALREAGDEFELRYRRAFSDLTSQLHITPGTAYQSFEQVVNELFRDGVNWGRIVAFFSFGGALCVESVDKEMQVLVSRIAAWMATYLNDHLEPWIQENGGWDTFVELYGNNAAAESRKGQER

B1: SEQ ID NO: 1628 (peptide)
peptide: IWIAQALRAIGDEFNAYYARR
modifications: not fully specified; Ac- at N-terminus; -NH2 at C-terminus; $r8 at 9 and $ at 16 joined by all-carbon crosslinker
In the case of B1, the Ki with MCL-1 worked out at 10.6 nM; with BCL-XL it was 3.9 nM; in the experiment with BCL-2 it was 12.9 nM.

B2: SEQ ID NO: 1633 (peptide)
peptide: IWIAQALRAIGDAFNAYYA
modifications: not fully specified; Ac- at N-terminus; -NH2 at C-terminus; $r8 at 9 and $ at 16 joined by all-carbon crosslinker
For B2, the Ki came out at 8.4 nM with MCL-1, 22.4 nM in the experiment with BCL-XL and 84.8 nM with BCL-2.

B3: SEQ ID NO: 1684 (peptide)
peptide: Ac-IW[Phe(4-tBu)]AQALR[R8]IGDAFN[S5]YYA-NH2
modifications: staple 9-16
SMILES: CC[C@H](C)[C@H](NC(C)=O)C(=O)N[C@@H](Cc1c[nH]c2ccccc12)C(=O)N[C@@H](Cc1ccc(C(C)(C)C)cc1)C(=O)N[C@@H](C)C(=O)N[C@@H](CCC(N)=O)C(=O)N[C@@H](C)C(=O)N[C@@H](CC(C)C)C(=O)N[C@@H](CCCNC(=N)N)C(=O)N[C@]1(C)CCCCCCC=CCCC[C@@](C)(C(=O)N[C@@H](Cc2ccc(O)cc2)C(=O)N[C@@H](Cc2ccc(O)cc2)C(=O)N[C@@H](C)C(N)=O)NC(=O)[C@H](CC(N)=O)NC(=O)[C@H](Cc2ccccc2)NC(=O)[C@H](C)NC(=O)[C@H](CC(=O)O)NC(=O)CNC(=O)[C@H]([C@@H](C)CC)NC1=O
notes: also called Ac-IWF4tBuAQALR$r8IGDAFN$YYA-NH2
With B3, the Ki came out at 151 nM with MCL-1 and 16.9 nM in the experiment with BCL-XL.

B4: SEQ ID NO: 1641 (peptide)
peptide: Ac-I[S5]IAQ[S5]LR[R8]IGDEFN[S5]YYA-NH2
modifications: staple 9-16, 2-6
SMILES: CC[C@H](C)[C@H](NC(C)=O)C(=O)N[C@@]1(C)CCCC=CCCC[C@@](C)(C(=O)N[C@@H](CC(C)C)C(=O)N[C@@H](CCCNC(=N)N)C(=O)N[C@]2(C)CCCCCCC=CCCC[C@@](C)(C(=O)N[C@@H](Cc3ccc(O)cc3)C(=O)N[C@@H](Cc3ccc(O)cc3)C(=O)N[C@@H](C)C(N)=O)NC(=O)[C@H](CC(N)=O)NC(=O)[C@H](Cc3ccccc3)NC(=O)[C@H](CCC(=O)O)NC(=O)[C@H](CC(=O)O)NC(=O)CNC(=O)[C@H]([C@@H](C)CC)NC2=O)NC(=O)[C@H](CCC(N)=O)NC(=O)[C@H](C)NC(=O)[C@H]([C@@H](C)CC)NC1=O
notes: also called Ac-I$IAQ$LR$r8IGDEFN$YYA-NH2
Regarding B4, the figures for the Ki in the experiment with MCL-1, with BCL-XL and with BCL-2 were 19.5 nM, 11.6 nM and 8.7 nM, respectively.

B5: SEQ ID NO: 1694 (peptide)
peptide: Ac-IWIAQA[Phe(4-CF3)]R[R8]IGDAFN[S5]YYA-NH2
modifications: staple 9-16
SMILES: CC[C@H](C)[C@H](NC(C)=O)C(=O)N[C@@H](Cc1c[nH]c2ccccc12)C(=O)N[C@H](C(=O)N[C@@H](C)C(=O)N[C@@H](CCC(N)=O)C(=O)N[C@@H](C)C(=O)N[C@@H](Cc1ccc(C(F)(F)F)cc1)C(=O)N[C@@H](CCCNC(=N)N)C(=O)N[C@]1(C)CCCCCCC=CCCC[C@@](C)(C(=O)N[C@@H](Cc2ccc(O)cc2)C(=O)N[C@@H](Cc2ccc(O)cc2)C(=O)N[C@@H](C)C(N)=O)NC(=O)[C@H](CC(N)=O)NC(=O)[C@H](Cc2ccccc2)NC(=O)[C@H](C)NC(=O)[C@H](CC(=O)O)NC(=O)CNC(=O)[C@H]([C@@H](C)CC)NC1=O)[C@@H](C)CC
notes: also called Ac-IWIAQAF4CF3R$r8IGDAFN$YYA-NH2
Turning to B5, the Ki worked out at 188 nM with MCL-1 and 10.8 nM with BCL-XL.

B6: SEQ ID NO: 1687 (peptide)
peptide: Ac-IWIAQA[Cha]R[R8]IGDAFN[S5]YYA-NH2
modifications: staple 9-16
SMILES: CC[C@H](C)[C@H](NC(C)=O)C(=O)N[C@@H](Cc1c[nH]c2ccccc12)C(=O)N[C@H](C(=O)N[C@@H](C)C(=O)N[C@@H](CCC(N)=O)C(=O)N[C@@H](C)C(=O)N[C@@H](CC1CCCCC1)C(=O)N[C@@H](CCCNC(=N)N)C(=O)N[C@]1(C)CCCCCCC=CCCC[C@@](C)(C(=O)N[C@@H](Cc2ccc(O)cc2)C(=O)N[C@@H](Cc2ccc(O)cc2)C(=O)N[C@@H](C)C(N)=O)NC(=O)[C@H](CC(N)=O)NC(=O)[C@H](Cc2ccccc2)NC(=O)[C@H](C)NC(=O)[C@H](CC(=O)O)NC(=O)CNC(=O)[C@H]([C@@H](C)CC)NC1=O)[C@@H](C)CC
notes: also called Ac-IWIAQAChaR$r8IGDAFN$YYA-NH2
Take B6: the Ki in the experiment with MCL-1 is 4.2 nM; in the experiment with BCL-XL, 81.1 nM.

B7: SEQ ID NO: 1643 (peptide)
peptide: Ac-IWIAQALR[R8]IGDEFA[S5]YYA-NH2
modifications: staple 9-16
SMILES: CC[C@H](C)[C@H](NC(C)=O)C(=O)N[C@@H](Cc1c[nH]c2ccccc12)C(=O)N[C@H](C(=O)N[C@@H](C)C(=O)N[C@@H](CCC(N)=O)C(=O)N[C@@H](C)C(=O)N[C@@H](CC(C)C)C(=O)N[C@@H](CCCNC(=N)N)C(=O)N[C@]1(C)CCCCCCC=CCCC[C@@](C)(C(=O)N[C@@H](Cc2ccc(O)cc2)C(=O)N[C@@H](Cc2ccc(O)cc2)C(=O)N[C@@H](C)C(N)=O)NC(=O)[C@H](C)NC(=O)[C@H](Cc2ccccc2)NC(=O)[C@H](CCC(=O)O)NC(=O)[C@H](CC(=O)O)NC(=O)CNC(=O)[C@H]([C@@H](C)CC)NC1=O)[C@@H](C)CC
As for B7, the figures for the Ki in the experiment with MCL-1, in the experiment with BCL-XL and in the experiment with BCL-2 were 7 nM, 15.4 nM and 21.9 nM, respectively.

B8: SEQ ID NO: 1693 (peptide)
peptide: Ac-IWIAQA[Igl]R[R8]IGDAFN[S5]YYA-NH2
modifications: staple 9-16
SMILES: CC[C@H](C)[C@H](NC(C)=O)C(=O)N[C@@H](Cc1c[nH]c2ccccc12)C(=O)N[C@H](C(=O)N[C@@H](C)C(=O)N[C@@H](CCC(N)=O)C(=O)N[C@@H](C)C(=O)N[C@H](C(=O)N[C@@H](CCCNC(=N)N)C(=O)N[C@]1(C)CCCCCCC=CCCC[C@@](C)(C(=O)N[C@@H](Cc2ccc(O)cc2)C(=O)N[C@@H](Cc2ccc(O)cc2)C(=O)N[C@@H](C)C(N)=O)NC(=O)[C@H](CC(N)=O)NC(=O)[C@H](Cc2ccccc2)NC(=O)[C@H](C)NC(=O)[C@H](CC(=O)O)NC(=O)CNC(=O)[C@H]([C@@H](C)CC)NC1=O)C1Cc2ccccc2C1)[C@@H](C)CC
notes: also called Ac-IWIAQAIglR$r8IGDAFN$YYA-NH2
Consider B8, for which the Ki with MCL-1 came to 47.7 nM; with BCL-XL, 147 nM.

B9: SEQ ID NO: 1691 (peptide)
peptide: Ac-IWIAQA[hAdm]R[R8]IGDAFN[S5]YYA-NH2
modifications: staple 9-16
notes: also called Ac-IWIAQAhAdmR$r8IGDAFN$YYA-NH2
Consider B9, for which the Ki with MCL-1 amounted to 16.6 nM; with BCL-2, 240 nM.

B10: SEQ ID NO: 1648 (peptide)
peptide: Ac-IAIAQALR[R8]IGDAFN[S5]YYA-NH2
modifications: staple 9-16
SMILES: CC[C@H](C)[C@H](NC(C)=O)C(=O)N[C@@H](C)C(=O)N[C@H](C(=O)N[C@@H](C)C(=O)N[C@@H](CCC(N)=O)C(=O)N[C@@H](C)C(=O)N[C@@H](CC(C)C)C(=O)N[C@@H](CCCNC(=N)N)C(=O)N[C@]1(C)CCCCCCC=CCCC[C@@](C)(C(=O)N[C@@H](Cc2ccc(O)cc2)C(=O)N[C@@H](Cc2ccc(O)cc2)C(=O)N[C@@H](C)C(N)=O)NC(=O)[C@H](CC(N)=O)NC(=O)[C@H](Cc2ccccc2)NC(=O)[C@H](C)NC(=O)[C@H](CC(=O)O)NC(=O)CNC(=O)[C@H]([C@@H](C)CC)NC1=O)[C@@H](C)CC
In the case of B10, the Ki was 19.7 nM with MCL-1, 22.3 nM in the experiment with BCL-XL and 37.7 nM in the experiment with BCL-2.

B11: SEQ ID NO: 1649 (peptide)
peptide: Ac-IWIAQALR[R8]IGDEFN[S5]YYA-NH2
modifications: staple 9-16
SMILES: CC[C@H](C)[C@H](NC(C)=O)C(=O)N[C@@H](Cc1c[nH]c2ccccc12)C(=O)N[C@H](C(=O)N[C@@H](C)C(=O)N[C@@H](CCC(N)=O)C(=O)N[C@@H](C)C(=O)N[C@@H](CC(C)C)C(=O)N[C@@H](CCCNC(=N)N)C(=O)N[C@]1(C)CCCCCCC=CCCC[C@@](C)(C(=O)N[C@@H](Cc2ccc(O)cc2)C(=O)N[C@@H](Cc2ccc(O)cc2)C(=O)N[C@@H](C)C(N)=O)NC(=O)[C@H](CC(N)=O)NC(=O)[C@H](Cc2ccccc2)NC(=O)[C@H](CCC(=O)O)NC(=O)[C@H](CC(=O)O)NC(=O)CNC(=O)[C@H]([C@@H](C)CC)NC1=O)[C@@H](C)CC
Take B11: the Ki with MCL-1 turned out to be 1.8 nM; with BCL-XL it was 1.4 nM; in the experiment with BCL-2 it was 3.2 nM.

B12: SEQ ID NO: 1689 (peptide)
peptide: Ac-IWIAQA[Gly(1-adamantyl)]R[R8]IGDAFN[S5]YYA-NH2
modifications: staple 9-16
SMILES: CC[C@H](C)[C@H](NC(C)=O)C(=O)N[C@@H](Cc1c[nH]c2ccccc12)C(=O)N[C@H](C(=O)N[C@@H](C)C(=O)N[C@@H](CCC(N)=O)C(=O)N[C@@H](C)C(=O)N[C@H](C(=O)N[C@@H](CCCNC(=N)N)C(=O)N[C@]1(C)CCCCCCC=CCCC[C@@](C)(C(=O)N[C@@H](Cc2ccc(O)cc2)C(=O)N[C@@H](Cc2ccc(O)cc2)C(=O)N[C@@H](C)C(N)=O)NC(=O)[C@H](CC(N)=O)NC(=O)[C@H](Cc2ccccc2)NC(=O)[C@H](C)NC(=O)[C@H](CC(=O)O)NC(=O)CNC(=O)[C@H]([C@@H](C)CC)NC1=O)C12CC3CC(CC(C3)C1)C2)[C@@H](C)CC
notes: also called Ac-IWIAQAAdmR$r8IGDAFN$YYA-NH2
Take B12: the Ki is 40.2 nM in the experiment with MCL-1 and 110 nM with BCL-XL.

B13: SEQ ID NO: 1686 (peptide)
peptide: Ac-IW[Bip]AQALR[R8]IGDAFN[S5]YYA-NH2
modifications: staple 9-16
SMILES: CC[C@H](C)[C@H](NC(C)=O)C(=O)N[C@@H](Cc1c[nH]c2ccccc12)C(=O)N[C@@H](Cc1ccc(-c2ccccc2)cc1)C(=O)N[C@@H](C)C(=O)N[C@@H](CCC(N)=O)C(=O)N[C@@H](C)C(=O)N[C@@H](CC(C)C)C(=O)N[C@@H](CCCNC(=N)N)C(=O)N[C@]1(C)CCCCCCC=CCCC[C@@](C)(C(=O)N[C@@H](Cc2ccc(O)cc2)C(=O)N[C@@H](Cc2ccc(O)cc2)C(=O)N[C@@H](C)C(N)=O)NC(=O)[C@H](CC(N)=O)NC(=O)[C@H](Cc2ccccc2)NC(=O)[C@H](C)NC(=O)[C@H](CC(=O)O)NC(=O)CNC(=O)[C@H]([C@@H](C)CC)NC1=O
notes: also called Ac-IWBipAQALR$r8IGDAFN$YYA-NH2
For the molecule B13, the Ki in the experiment with MCL-1 came to 11 nM; with BCL-XL it was 3 nM.
